{"source": "patent US20200207829", "tested_on": "TMt-NES-dCas9VP64", "data": [{"substance": "TEVC151A", "values": [{"measurement": "EYFP activation score", "result": "did not show any activity above baseline levels"}]}]}
